From publication PMC5871787

Legend:
[1] = target: sGFPori (sGFP 1–10 OPT), recombinant; experiment: SEC; size-exclusion HPLC of purified, non-complemented sFPs at high concentration; sGFP2 (ReAsH-labelled) at 20 µM, concentrations of the other sFPs not stated
[2] = target: sGFPori (sGFP 1–10 OPT), recombinant; experiment: fluorescence polarisation; steady-state fluorescence anisotropy of ReAsH-labelled sFP at 20, 10, 5, 2.5, 1.25 and 0.5 µM, after equilibrium at RT, triplicate; apparent equilibrium constant of dimer formation (monomers to dimer)
[3] = target: M3 peptide (complementary 11th β-strand peptide of split GFP); experiment: other fluorescence titration; fluorescence complementation kinetics, pseudo-first order: 0.1 µM M3 peptide with 0.1–30 µM total sFP, TN buffer pH 8.0 with 1 mM DTT, 5 mM EDTA, 0.05% CHAPS, 25 °C, 14 hours; kobs1 against the concentration of sFP monomers fitted by a line; binding irreversible

stoichiometry N [1]: 2
Ka [2]: 320000 M⁻¹
kon [3]: 70 M⁻¹ s⁻¹
Substance: sGFPori (sGFP 1–10 OPT), recombinant (domain or fragment)
